± gives the uncertainty stated by the source.
Assay: protein stability index of a GFP-peptide fusion (yeast GPS) (PSI 1-4); higher = more stable; sorted into four equal gates, so the index is relative within each strain
Details: doa10∆
Method in brief: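 The protein stability index combines read frequencies across sorting gates, each weighted by its gate number and then summed. To obtain those frequencies, a pooled yeast library of GFP fusions to tiled 17-residue yeast protein peptides, on a plasmid also expressing Cherry, was grown to mid-log phase in leucine-free medium. The cells were sorted into four equal gates by GFP/Cherry ratio before plasmid amplification by PCR and Illumina sequencing.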
For GLELSNFKSYRGVTKVG [SMC1], the protein stability index was 3.04 ± 0.094. In the case of GLESQIQEIKESVELPL [RPT2], the protein stability index is reported as 2.11 ± 0.087. For GLLDESPNRLRVRTDDS [YML031W/NDC1], the protein stability index was 1.5 ± 0.098. Work on GMKVKADRDESSPYAAM [RPS14B] yielded a protein stability index of 1.32 ± 0.067. With GMPHKFYQGKTGVVYNV [RPL21A] the protein stability index was 2.84 ± 0.088. GNASLKYIALQVIVDIF [YCG1] showed a protein stability index of 1.2 ± 0.069. In the case of GNDNNSDSNANAAVAGV [SWI3], the protein stability index is reported as 3.21 ± 0.057. GNGNVSESDIINNLPPE [YCG1] showed a protein stability index of 2.85 ± 0.24. GNIQISEYNFLEGSVSL [DIS3] gave a protein stability index of 2.74 ± 0.097. Work on GNKKYRALRIETGNFSW [RPS8A] yielded a protein stability index of 2.87 ± 0.038. Sequence GNMGITTEMLDKLMVTS [MED6] has a protein stability index of 3.36 ± 0.1. In the case of GNPLSIGTLEEIIDDDH [RPT2], the protein stability index is reported as 3.28 ± 0.1. GNVFSPIDNNIIFASTK [SNU114] gave a protein stability index of 3.16 ± 0.062. With GNVLLNATVVDSFKYEP [YLR335W/NUP2] the protein stability index was 2.92 ± 0.074. GNVTELYGTAIGARSQG [PRE5] gave a protein stability index of 2.11 ± 0.08. Sequence GPGGQAALRALARSGLR [RPS14B] has a protein stability index of 2.41 ± 0.081. For GPKKNVFYAPNVKNYST [RPC34], the protein stability index was 2.69 ± 0.072. GPRNTEEKGWVPVTKLG [RPS2] gave a protein stability index of 3.55 ± 0.1. GPVAAQFTKVIDEPIKS [FAS1] showed a protein stability index of 1.8 ± 0.2. In the case of GPVVAGINSKSGKPFIA [PUP3], the protein stability index is reported as 3.18 ± 0.13. With GQCRTELEGSFNKSAEL [YCS4] the protein stability index was 3.04 ± 0.09. Work on GQLLSVKFLVYQGVYSM [YML031W/NDC1] yielded a protein stability index of 1.61 ± 0.084. Sequence GQRDLDRIAAQTLEEDE [RPS19A] has a protein stability index of 3.21 ± 0.087. GQSEASLLNLLNISPFT [RPP0] showed a protein stability index of 2.59 ± 0.066. GRAGVPMEVMGLMLGEF [RPN11] gave a protein stability index of 1.25 ± 0.17. In the case of GRLLRAMFEICLKRGWG [BRR2], the protein stability index is reported as 1.75 ± 0.11. GRLNTLVISLAATNETF [IRR1] showed a protein stability index of 1.64 ± 0.088. With GRLSLRSLTAYAPNLML [QCR10] the protein stability index was 1.26 ± 0.041. With GRRLNIRQYALATAHIY [SSN8] the protein stability index was 1.53 ± 0.055. Work on GRSDSNTEEKAELQSNL [YGL100W/SEH1] yielded a protein stability index of 1.61 ± 0.037. For GRSRDGGLRFGEMERDC [RPB2], the protein stability index was 2.86 ± 0.29. Sequence GRVKYTKRQKHFAWLPT [POP1] has a protein stability index of 2.27 ± 0.051. For GRYAGKKVVIVKPHDEG [RPL27A], the protein stability index was 3.25 ± 0.25. GSEILGDLKLQVLLDEE [RPO21] showed a protein stability index of 3.25 ± 0.12. With GSFKVVKGTNISEKDLV [RPO31] the protein stability index was 2.6 ± 0.27. In the case of GSIPSLTTQFVTDKYTA [YDL088C/ASM4], the protein stability index is reported as 2.54 ± 0.08. Sequence GSKENYQELGSLQSSSQ [MED2] has a protein stability index of 3.16 ± 0.15. GSKIRVMWGKVTRTHGN [RPL33A] gave a protein stability index of 3.09 ± 0.075. In the case of GSNNAQTSRGLFGNNNT [YGL172W/NUP49], the protein stability index is reported as 3.24 ± 0.087. With GSQKTFEIDDEHRIRVF [RPS6A] the protein stability index was 1.75 ± 0.089. With GSTFKVNQEFIFEAISL [YJL039C/NUP192] the protein stability index was 2.33 ± 0.1. In the case of GTANNNSNTTNQNSSTG [YJL041W/NSP1], the protein stability index is reported as 3.19 ± 0.064. GTCNGDITTSIMDNFLE [RPN1] showed a protein stability index of 2.77 ± 0.054. Work on GTFTADYSKPNLPPHYA [SSN2] yielded a protein stability index of 2.23 ± 0.055. Work on GTGLFGQQTAQPQQSTI [YGR119C/NUP57] yielded a protein stability index of 2.76 ± 0.063. With GTLDKNSQTVSGTPITQ [SNF2] the protein stability index was 2.83 ± 0.055. For GTLWAHVLKTVDYGGAE [SNU114], the protein stability index was 1.44 ± 0.084. Work on GTQQSNMYTSTQKTELE [SIR4] yielded a protein stability index of 2.96 ± 0.049. For GTYIQERNPSQRPQRRY [RPS10B], the protein stability index was 3.01 ± 0.052. Work on GVANTDTAGEESQQQDE [SWI3] yielded a protein stability index of 3.45 ± 0.1. Sequence GVDDQILATNSLRILAK [YJL039C/NUP192] has a protein stability index of 3.14 ± 0.13. With GWSLVGRILQNLLHSYM [YML103C/NUP188] the protein stability index was 1.85 ± 0.087. GYDRHITIFSPEGRLYQ [SCL1] showed a protein stability index of 2.76 ± 0.11. Work on GYFIINGSEKVLIAQER [RPB2] yielded a protein stability index of 3.14 ± 0.21. Sequence GYIKNNKKIYQWNKLTS [POP6] has a protein stability index of 2.93 ± 0.085. Sequence GYRSRTRYMFQRDFRKH [RPL21A] has a protein stability index of 3.16 ± 0.07. Work on GYVSSLVEPSKVGQFDQ [FAS1] yielded a protein stability index of 1.52 ± 0.082. HAKFSPVSTASYRLLPQ [RPC40] showed a protein stability index of 1.71 ± 0.076. In the case of HANAAAVYFADTSGLKI [SIN4], the protein stability index is reported as 2.37 ± 0.067. Work on HARTAAVTHNLYYDEDI [PUP2] yielded a protein stability index of 3.21 ± 0.16. With HASKAIGLPRHSLAYLL [RRP6] the protein stability index was 2.24 ± 0.046. HAYRDVLAQYHEAKERI [SNF6] gave a protein stability index of 2.98 ± 0.066. For HCGALNGVVKKAAAGAG [RPO31], the protein stability index was 1.35 ± 0.27. HCITSITLALADAGIEL [MTR3] gave a protein stability index of 1.5 ± 0.071. Work on HDADLEVSMNSIFAMGL [RPN1] yielded a protein stability index of 1.85 ± 0.038. HDEKSDSLNEWIKFDQE [RPN7] showed a protein stability index of 3.19 ± 0.13. HEAKERIRQKEVTAGEA [SNF6] showed a protein stability index of 3 ± 0.18. HEDLVNSIESKNLSLQT [COR1] showed a protein stability index of 2.96 ± 0.087. In the case of HESTSRTDQYTIDNIDS [YMR129W/POM152], the protein stability index is reported as 2.84 ± 0.053. HFENAKVIDLDTKLKAH [YIL149C/MLP2] showed a protein stability index of 2.62 ± 0.073. For HFFSKSCSFFAKLSDTL [NUT1], the protein stability index was 2.06 ± 0.047. HFQDQKNKKIEVYTKTI [POP7] showed a protein stability index of 3.19 ± 0.11. Sequence HFVRDLGTIESAQAETE [DIS3] has a protein stability index of 2.16 ± 0.26. For HGDAAVLLVEKYGAEYD [NAS6], the protein stability index was 1.94 ± 0.21. With HGGKMKPEIDENGTLLV [RPR2] the protein stability index was 3.16 ± 0.078. Sequence HGTSTSAEDEENIIQRL [CDC53] has a protein stability index of 3.13 ± 0.064. HHDYRSYYGIVCLMQIS [RRP6] gave a protein stability index of 2.03 ± 0.085. HIEKLENEFVVLLDARD [CDC53] gave a protein stability index of 3.35 ± 0.088. In the case of HILPEVPPVENFPVRQW [TAF14], the protein stability index is reported as 2.71 ± 0.12. For HKCDELITLFNKGELET [RPO31], the protein stability index was 2.72 ± 0.095. In the case of HKHNIMKNENANPKKLA [CDC53], the protein stability index is reported as 2.14 ± 0.042. HKLRESLPLIVFLRNRL [RPS4A] gave a protein stability index of 1.85 ± 0.052. In the case of HKSIELISNLLFSKNRN [YCS4], the protein stability index is reported as 2.25 ± 0.055. In the case of HKTMSIVGVLQDDADPM [RPT2], the protein stability index is reported as 1.6 ± 0.18. In the case of HKVQTKLTRELEKKFPD [RPS7B], the protein stability index is reported as 2.82 ± 0.16. Work on HLKHENANDETTAVEDE [RPB4] yielded a protein stability index of 2.92 ± 0.067. HNQSPRNTYQSAMGKQA [RPB2] showed a protein stability index of 2.48 ± 0.063. With HPKLIKNKSGKIFVETK [FAS1] the protein stability index was 2.3 ± 0.067. With HQNVIIGSNGSGKSNFF [SMC3] the protein stability index was 3.07 ± 0.086. HSLREYINGKATALANL [RPO31] gave a protein stability index of 3.06 ± 0.086. HTLCNRCGRRSFHVQKK [RPL37A] showed a protein stability index of 2.98 ± 0.035. Sequence HTQANEPNSAKKIRFLQ [RGR1] has a protein stability index of 2.98 ± 0.24. HVFQYANRPRLVGRKPA [RPC37] showed a protein stability index of 2.86 ± 0.23. HYDNTTRNSLGNVIQFI [RPO21] showed a protein stability index of 2.45 ± 0.04. With IAASAFLSLLNLATKGM [REC8] the protein stability index was 1.54 ± 0.054. IAKSQDKKSCSVDDVLS [DPB4] gave a protein stability index of 3.28 ± 0.057. Work on IATDGGRICRPLIIVSD [RET1] yielded a protein stability index of 2.01 ± 0.046. ICIVGGYDDFQEEGSFE [FAS2] showed a protein stability index of 2.98 ± 0.16. Sequence ICKNCSAILLSETDKRQ [RPO31] has a protein stability index of 2.59 ± 0.086.

Reference: the supplement of paper PMC9732359
